Where “and” joins values, the source holds several entries; their conditions need not be identical. Equal values may be shown once.
Assays:
[1] = target: fused Cp (genetically-fused dimer of the hepatitis B virus core protein assembly domain) (hepatitis B virus); assay: native MS; non-covalent ESI-MS of oligomer samples isolated by SEC, button-dialysed into 100 mM ammonium acetate pH 6.8 (fused Cp samples at pH 9.5)
[2] = target: fused Cp (genetically-fused dimer of the hepatitis B virus core protein assembly domain) (hepatitis B virus); assay: SEC; pooled peaks 2-4 of the fused Cp disassembly re-run on a 26/60 Superdex-200 column calibrated with molecular weight standards, 1.0 ml/min; masses from the standard curve

Substance: fused Cp (genetically-fused dimer of the hepatitis B virus core protein assembly domain)
- stoichiometry N [1]: 2 and 3
- stoichiometry N [2]: 2 copies and 3 copies and 5 copies

From publication PMC4481223
